Measurements taken from patent US20020055130A1, “Method and product for regulating apoptosis” (National Jewish Center for Immunology and Respiratory …, priority 1997, published 2002).

Target: JNK kinase/SEK-1 (endogenous, Swiss 3T3 cells) (UniProt P47809)
Assay: cell-based or functional assay

Sequence of JNK kinase/SEK-1 (endogenous, Swiss 3T3 cells) (P47809 2-397 limits assumed): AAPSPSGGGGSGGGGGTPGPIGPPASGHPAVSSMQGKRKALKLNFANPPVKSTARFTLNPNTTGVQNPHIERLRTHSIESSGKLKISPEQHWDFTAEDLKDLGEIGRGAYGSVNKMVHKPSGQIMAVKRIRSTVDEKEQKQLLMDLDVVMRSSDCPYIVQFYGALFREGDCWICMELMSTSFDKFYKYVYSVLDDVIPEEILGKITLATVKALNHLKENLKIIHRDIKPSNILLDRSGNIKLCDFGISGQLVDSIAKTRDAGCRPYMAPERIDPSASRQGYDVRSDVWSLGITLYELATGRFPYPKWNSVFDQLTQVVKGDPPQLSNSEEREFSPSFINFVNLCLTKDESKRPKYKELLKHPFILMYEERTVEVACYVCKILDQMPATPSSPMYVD

“competitive inhibitory JNK/SAPK mutant JNK/SAPK(APF)” showed an inhibition of Gal4/Jun activation in response to MEKKCOOH (luciferase reporter, transient transfection) of 65%.
